Literature values in PMC3906610.

Target: PagP (Escherichia coli) (UniProt P37001)
Chain of UniProt P37001 (P37001 26-186): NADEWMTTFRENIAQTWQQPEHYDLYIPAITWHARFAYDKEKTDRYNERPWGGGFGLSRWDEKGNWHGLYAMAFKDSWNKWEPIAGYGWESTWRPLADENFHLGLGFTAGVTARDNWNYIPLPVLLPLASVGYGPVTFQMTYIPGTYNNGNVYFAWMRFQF

- Kd: 11.8 nM
Substance: Skp (from UniProt P0AEU7)
